Experimental data from article PMC3119658, “The Naturally Processed CD95L Elicits a c-Yes/Calcium/PI3K-Driven Cell Migration Pathway” (PLoS Biology, 2011).

How the values were obtained:
[1] = biological target: Ig-CD95L (extracellular region of CD95L fused to a dimerization domain (Ig) of the LIF receptor gp190) (UniProt P48023); assay: SEC; gel filtration analysis, unpublished data
[2] = biological target: the molecule itself; assay: SEC; size exclusion on S-200-HR Sephacryl columns; fractions harvested and cl-CD95L dosed by ELISA

Molecule: Ig-CD95L (extracellular region of CD95L fused to a dimerization domain (Ig) of the LIF receptor gp190) (from UniProt P48023 105-281) (ligand)
- stoichiometry N [1]: 12

B1: metalloprotease-cleaved CD95L (ligand, UniProt P48023 127-281, looked up)
chain: LEKQIGHPSPPPEKKELRKVAHLTGKSNSRSMPLEWEDTYGIVLLSGVKYKKGGLVINETGLYFVYSKVYFRGQSCNNLPLSHKVYMRNSKYPQDLVMMEGKMMSYCTTGQMWARSSYLGAVFNLTSADHLYVNVSELSLVNFEESQTFFGLYKL
notes: In the functional row the CD95L is the soluble ligand in sera of SLE patients, not the 293-made preparation; also called cl-CD95L; naturally processed CD95L; source: 293 cells transfected with wild type CD95L cDNA; exosome-free supernatant, concentrated (10 kDa cut-off) and dialyzed against PBS
- stoichiometry N [2]: 3
